Here are results for three molecules from patent US10098865B2, “Multi-arm polymeric prodrug conjugates of taxane-based compounds” (Nektar Therapeutics, priority 2010, dated 2018).

The data set can be described thus: Maximum Tolerated Dose (MTD) study of d9-docetaxel conjugates in athymic mice. Format: in vivo, female athymic nu/nu mice. Conditions: for MTD (maximum tolerated dose), estimated: athymic nu/nu mice, qwk×3, iv, dose refers to d9-docetaxel content; for Body Weight Nadir / Body Weight Nadir (day): day of nadir / Treatment-Related Deaths: female athymic nu/nu mice, qwk x 3. The protocol:
MTD for 4-arm-PEG20K-CM-glycine-d9-docetaxel and 4-arm-PEG20K-BA-d9-docetaxel were determined in female athymic nu/nu mice using standard methods. For all test compounds, the dose refers to the d9-docetaxel content. d9-Docetaxel solutions were prepared in D5W containing 7.5% Tween 80:7.5% ethanol. PEG-d9-docetaxel conjugates were prepared in D5W. The administration volume for all test articles was 10 mL/kg. Mice were observed daily for clinical signs and body weights were recorded on days 1-5 and then biweekly until the end of study. Any individual animal with a single observation of greater than 30% body weight loss or three consecutive measurements of greater than 25% body weight loss was euthanized. For any group with two measurements of mean body weight loss of greater than 20%, dosing was stopped and recovery was allowed. Within a group with greater than 20% mean weight loss, individual animals greater than 30% body weight loss were euthanized. Compound dosing was terminated for any group in which mean weight loss exceeded 20% or >10% of animals died. Moribund animals were euthanized and all animals were euthanized at end of study.

Setting [1] is: 7.5 mg/kg (d9-docetaxel content) iv.
Where [2] appears, read: 30 mg/kg (d9-docetaxel content) iv.
[3] abbreviates: N=5, 7.5 mg/kg (d9-docetaxel content) iv.
Setting [4] is: N=5, 15 mg/kg (d9-docetaxel content) iv.
[5] abbreviates: N=5, 30 mg/kg (d9-docetaxel content) iv.
The mark [6] stands for this setting: 15 mg/kg (d9-docetaxel content) iv.

As to “4-ARM-PEG20K-Butanoate-Linked d9-Docetaxel Conjugate [4ARM-PEG20K-BA-d9-DOC]”, the “MTD (maximum tolerated dose), estimated” value was 20 mg/kg. Also, under setting [1], the “Body Weight Nadir” value is reported as −0.6% and the “Body Weight Nadir (day): day of nadir” value turned out to be 2 days. Under setting [2], the “Body Weight Nadir” value is −21.0% and the “Body Weight Nadir (day): day of nadir” value was found to be 21 days. Also, under setting [3], the “Treatment-Related Deaths” value was 0. In addition, under setting [4], the “Treatment-Related Deaths” value was determined as 0. Further, the “Treatment-Related Deaths” value under setting [5] stood at 0.

Regarding “4-ARM-PEG20K-Glycinate-Linked d9-Docetaxel Conjugate [4ARM-PEG20K-CM-GLY-d9-DOC]”, the “MTD (maximum tolerated dose), estimated” value is listed as 20 mg/kg. Under setting [1], the “Body Weight Nadir” value is given as −1.6% and the “Body Weight Nadir (day): day of nadir” value is 2 days. Under setting [6], the “Body Weight Nadir” value was −4.2% and the “Body Weight Nadir (day): day of nadir” value is 10 days. In addition, under setting [2], the “Body Weight Nadir” value was −25.2% and the “Body Weight Nadir (day): day of nadir” value is 21 days. For the same molecule, the “Treatment-Related Deaths” value under setting [3] was determined as 0. Also, the “Treatment-Related Deaths” value under setting [4] came out at 0. In addition, the “Treatment-Related Deaths” value under setting [5] is 0.

For the molecule `[2H]C([2H])([2H])C(OC(=O)N[C@@H](c1ccccc1)[C@@H](O)C(=O)O[C@H]1C[C@@]2(O)[C@@H](OC(=O)c3ccccc3)C3C(C)(C(=O)[C@H](O)C(=C1C)C2(C)C)[C@@H](O)CC1OC[C@]13OC(C)=O)(C([2H])([2H])[2H])C([2H])([2H])[2H]` (stereo partly drawn) [Docetaxel-d9, d9-Docetaxel], under “25 mg/kg iv”, the “Body Weight Nadir” value is −17.7% and the “Body Weight Nadir (day): day of nadir” value is 21 days. Moreover, the “Treatment-Related Deaths” value (N=5, 25 mg/kg iv) is 0.
